Assay [1] has as its target T1, human CD123 SP1 ECD displayed on pDisplay-transfected cells (human, UniProt P26951 20-305).
T1 construct: ECD anchored on the surface of stably transfected HEK293 cells by the PDGFR transmembrane domain; also called hCD123 SP1 cells; hCD123 cells
T1 sequence: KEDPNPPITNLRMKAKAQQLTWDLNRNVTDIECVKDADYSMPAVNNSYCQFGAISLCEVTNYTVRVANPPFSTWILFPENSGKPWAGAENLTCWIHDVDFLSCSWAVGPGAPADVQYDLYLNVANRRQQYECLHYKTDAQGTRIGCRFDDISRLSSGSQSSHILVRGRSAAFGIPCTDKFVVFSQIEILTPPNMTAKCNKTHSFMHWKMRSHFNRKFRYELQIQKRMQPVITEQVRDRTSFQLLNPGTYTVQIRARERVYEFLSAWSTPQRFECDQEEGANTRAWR
The assay is described as follows: MSD-CAT on pDisplay cells. Here is the method:
(§1) The MSD-CAT was developed in-house as a label-free method to determine affinity using intact cells in a high throughput format. […] Cell lines used were human pDisplay CD123SP1 and pDisplay CD123SP2. […] These samples were prepared in DMEM Glutamax medium containing 0.05% Azide, 1% BSA, 3 mM EDTA. […] After equilibration the plate was centrifuged for 5 minutes ˜1000 rpm and free anti-CD3 detected on the supernatant. […] The assay buffer was removed without washing and 50 uL/well of 0.7 ug/mL of biotinylated antigen in assay buffer were added to MSD plates and incubated overnight (˜16 hours at 4° C.).

For assay [2], the target named is T2, human CD123 SP2 ECD displayed on pDisplay-transfected cells (human, UniProt P26951 101-305).
T2 construct: ECD anchored on the surface of stably transfected HEK293 cells; also called hCD123 SP2 cells; pDisplay CD123SP2
T2 sequence: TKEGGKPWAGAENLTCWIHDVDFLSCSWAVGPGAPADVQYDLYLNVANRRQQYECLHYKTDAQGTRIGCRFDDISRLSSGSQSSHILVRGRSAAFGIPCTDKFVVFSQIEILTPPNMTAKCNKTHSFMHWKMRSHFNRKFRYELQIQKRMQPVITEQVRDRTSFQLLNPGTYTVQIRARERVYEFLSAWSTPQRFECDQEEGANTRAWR
In words: MSD-CAT on pDisplay cells. The protocol: as §1

In assay [3] the target is T3, Recombinant human CD123 SP1 ECD-His tag protein (human, UniProt P26951 20-305).
T3 construct: bought from R&D Systems (#301-R3/CF); biotinylated for some assays; also called rhCD123 SP1; huCD123 ECD SP1
T3 sequence: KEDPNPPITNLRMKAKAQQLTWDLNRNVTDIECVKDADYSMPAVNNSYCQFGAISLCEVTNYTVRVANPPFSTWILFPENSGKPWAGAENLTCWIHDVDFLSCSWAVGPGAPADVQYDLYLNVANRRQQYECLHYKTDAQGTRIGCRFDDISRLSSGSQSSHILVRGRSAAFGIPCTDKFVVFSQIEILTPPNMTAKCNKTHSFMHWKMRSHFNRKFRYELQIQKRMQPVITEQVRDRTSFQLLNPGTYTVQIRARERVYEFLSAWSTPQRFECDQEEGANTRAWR
The assay is described as follows: SPR Biacore 3000, captured mAb. Here is the method: (§2) Kinetic studies were performed at 25° C. using a Biacore 3000 (BIAcore, Inc., now part of GE Healthcare). […] Sheep anti-Human Fd specific antibody (The binding site Prod # PC075) was covalently attached to two flow cells (normally 3 and 4) of the carboxymethyl dextran coated gold surfaces (CM-5 Chip, Biacore). The carboxymethyl groups of dextran were activated with N-Ethyl-N′-(3-Dimethylaminopropyl)carbodiimide (EDC) and N-hydroxysuccinimide (NHS). The antibodies were coupled at pH 4.5 in 10 mM sodium acetate. Any remaining reactive sites on the surface were blocked by reaction with ethanolamine. […] Association data was collected for 2 min followed by 10 min of dissociation. The surface was regenerated with 30 μL of 100 mM H3PO4 100 μL/min. All samples were prepared in D-PBS containing 3 mM EDTA and 0.005% surfactant P20. Data reported is the difference in SPR signal between the flow cell containing the captured antibody or Fab and a reference cell without captured antibody or Fab. Additional instrumental contributions to the signal were removed by subtraction of the data from the blank injection from the reference-subtracted signal. Data were performed in triplicate and analyzed by fitting association and dissociation phases at all concentrations (global fit) with a 1:1 binding model using the BIAevaluation software (BIAcore, Inc.). […] Data presented is an average.
In general terms: In SPR one partner is held on a chip, and binding of the other changes the refractive index at the surface.

Assay [4] deals with T4, Recombinant human CD123 SP2 ECD protein (human, UniProt P26951 101-303).
T4 construct: also called rhCD123 SP2; CD123 ECD SP2
T4 sequence: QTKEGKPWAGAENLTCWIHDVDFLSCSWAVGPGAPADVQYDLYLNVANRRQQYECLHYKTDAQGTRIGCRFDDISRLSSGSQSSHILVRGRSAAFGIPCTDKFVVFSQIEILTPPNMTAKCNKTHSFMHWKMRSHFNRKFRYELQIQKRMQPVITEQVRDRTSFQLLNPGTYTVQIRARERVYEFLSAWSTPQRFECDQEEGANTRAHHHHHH
The assay is described as follows: SPR Biacore 3000, captured mAb. Here is the method: as §2

In assay [5] the target is T1, human CD123 SP1 ECD displayed on …. In words: MSD-CAT, hCD123 cells, assay-1; apparent KD (bivalent).
Assay [6] shares this target. In words: MSD-CAT, hCD123 cells, assay-2; apparent KD (bivalent).
Assay [7] addresses T5, cyno CD123 ECD displayed on pDisplay-transfected cells (cynomolgus monkey).
T5 construct: ECD anchored on the surface of stably transfected HEK293 cells; also called cynoCD123 SP1 cells; cynoCD123 cells
T5 chain: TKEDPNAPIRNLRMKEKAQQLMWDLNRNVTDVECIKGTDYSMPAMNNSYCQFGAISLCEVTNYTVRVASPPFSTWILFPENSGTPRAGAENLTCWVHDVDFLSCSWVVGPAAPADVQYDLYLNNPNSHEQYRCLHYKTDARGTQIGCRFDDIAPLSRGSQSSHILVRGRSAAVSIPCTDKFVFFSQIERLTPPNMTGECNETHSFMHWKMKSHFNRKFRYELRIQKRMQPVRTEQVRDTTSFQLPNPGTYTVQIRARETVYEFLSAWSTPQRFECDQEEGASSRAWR
In words: MSD-CAT, cynoCD123 cells, assay-1; apparent KD (bivalent).

Assay [8] has as its target T5, cyno CD123 ECD displayed on …. In words: MSD-CAT, cynoCD123 cells, assay-2; apparent KD (bivalent).

B1: I3RB18 (antibody, IgG1, V domains shown)
VH: EVQLVQSGAEVKKPGESLKISCKGSGYSFTSYWISWVRQMPGKGLEWMGIIDPSDSDTRYSPSFQGQVTISADKSISTAYLQWSSLKASDTAMYYCARGDGSTDLDYWGQGTLVTVSS
VL: EIVLTQSPGTLSLSPGERATLSCRASQSVSSSYLAWYQQKPGQAPRLLIYGASSRATGIPDRFSGSGSGTDFTLTISRLEPEDFAVYYCQQDYGFPWTFGQGTKVEIK
notes: IgG1; also called 13RB18; mAb I3RB18
The koff is the first-order rate constant of dissociation. As a reminder, the kon is the second-order rate constant of association. Regarding B1, the Kd in assay [1] worked out at 47 pM; in assay [2], 49 pM; in assay [3], 1200 pM; in assay [4] it was 300 pM; in assay [5], 55 pM; in assay [6], 343 pM. Further, the Kd in assay [7] was 832 pM; in assay [8] it was > 11900 pM. Moreover, the koff in assay [3] was determined as 0.000808 s⁻¹. For the same molecule, in assay [3], the kon was determined as 688000 M⁻¹ s⁻¹.

(Values after patent US20160068605A1 (Janssen / Centocor, published 2016).)
